Test results from US20190048074A1 (Regeneron, published 2019).

Assays:
[1] = molecular target: T1, human Apelin receptor (hAPLNR) in PathHunter eXpress AGTRL1 CHO-K1 β-Arrestin cells (human, UniProt P35414 1-380); test: cell-based or functional assay
T1 sequence: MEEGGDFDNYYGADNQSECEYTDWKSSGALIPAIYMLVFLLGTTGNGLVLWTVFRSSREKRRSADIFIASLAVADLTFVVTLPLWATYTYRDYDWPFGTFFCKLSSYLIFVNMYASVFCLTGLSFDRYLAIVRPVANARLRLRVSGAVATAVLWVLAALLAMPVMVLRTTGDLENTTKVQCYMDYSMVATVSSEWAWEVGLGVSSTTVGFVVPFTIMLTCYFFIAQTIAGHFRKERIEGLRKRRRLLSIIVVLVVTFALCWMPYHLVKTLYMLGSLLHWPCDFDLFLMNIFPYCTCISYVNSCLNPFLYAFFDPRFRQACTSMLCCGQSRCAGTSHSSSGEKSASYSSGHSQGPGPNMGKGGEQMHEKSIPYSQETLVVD

full-length human APLNR = molecular target: T2, full-length human APLNR (human, UniProt P35414 1-380); test: cell-based or functional assay
T2 sequence: T1 sequence

B1: H4H9093P (antibody, V domains shown)
VH: EVQLVESGGGLVKPGGSLRLSCAASGITFSNAWMSWVRQAPGKGLEWVGRFKGKADGGTVDYAAPVKGRFTISRDDSKNTLYLQMNSLKNEDTAVYYCTTGRITMVRGVLGYWGQGTLVTVSS
VL: not shown
Which “% Activation at 500 nM antibody or Apelin-antibody fusion” value [1] does the source give for B1 here?
The value was 2%.

And the “% Inhibition at 100 nM mAb, in the presence of 100 ρM Apelin (at 7.5 µM Forskolin)” value (full-length human APLNR)?
Its value is 3%.
